Paper PMC8399149, “Engineering of Yeast Old Yellow Enzyme OYE3 Enables Its Capability Discriminating of (E)-Citral and (Z)-Citral” (Molecules, 2021)

B1: old yellow enzyme OYE3 (Saccharomyces cerevisiae S288C; S297F/W117G) (protein)
chain: MPFVKGFEPISLRDTNLFEPIKIGNTQLAHRAVMPPLTRMRATHPGNIPNKEWAAVYYGQRAQRPGTMIITEGTFISPQAGGYDNAPGIWSDEQVAEWKNIFLAIHDCQSFAWVQLGSLGWASFPDVLARDGLRYDCASDRVYMNATLQEKAKDANNLEHSLTKDDIKQYIKDYIHAAKNSIAAGADGVEIHSANGYLLNQFLDPHSNKRTDEYGGTIENRARFTLEVVDALIETIGPERVGLRLSPYGTFNSMSGGAEPGIIAQYSYVLGELEKRAKAGKRLAFVHLVEPRVTDPFLVEGEGEYSEGTNDFAYSIWKGPIIRAGNYALHPEVVREQVKDPRTLIGYGRFFISNPDLVYRLEEGLPLNKYDRSTFYTMSAEGYTDYPTYEEAVDLGWNKN
B2: old yellow enzyme OYE3 (Saccharomyces cerevisiae S288C) (protein)
chain: PFVKGFEPISLRDTNLFEPIKIGNTQLAHRAVMPPLTRMRATHPGNIPNKEWAAVYYGQRAQRPGTMIITEGTFISPQAGGYDNAPGIWSDEQVAEWKNIFLAIHDCQSFAWVQLWSLGWASFPDVLARDGLRYDCASDRVYMNATLQEKAKDANNLEHSLTKDDIKQYIKDYIHAAKNSIAAGADGVEIHSANGYLLNQFLDPHSNKRTDEYGGTIENRARFTLEVVDALIETIGPERVGLRLSPYGTFNSMSGGAEPGIIAQYSYVLGELEKRAKAGKRLAFVHLVEPRVTDPSLVEGEGEYSEGTNDFAYSIWKGPIIRAGNYALHPEVVREQVKDPRTLIGYGRFFISNPDLVYRLEEGLPLNKYDRSTFYTMSAEGYTDYPTYEEAVDLGWNKN

How the values were obtained:
purified protein [1] = substrate: CC(C)=CCC/C(C)=C/C=O; test: purified protein; assay type: biochemical, Saccharomyces cerevisiae; conditions: FMN, NADPH active site
purified protein [2] = substrate: CC(C)=CCC/C(C)=C\C=O; test: purified protein; assay type: biochemical, Saccharomyces cerevisiae; conditions: FMN; NADPH active site; H191/N194 hydrogen bonds with the carbonyl oxygen of citral, hydride from FMNH2 to Cβ, Y196 proton donor (docking)
[3] = H191/N194 hydrogen bonds with the carbonyl oxygen of citral, hydride from FMNH2 to Cβ, Y196 proton donor (docking)

Protein	Km (purified protein [1]; accommodation similar to OYE3 (docking)) [µM]	Km (purified protein [2]) [µM]	Vmax (purified protein [2]) [µmol/min/mg]	kcat (purified protein [2]) [s⁻¹]	kcat/Km (purified protein [2]) [M⁻¹ s⁻¹]	Km (purified protein [1]; [3]) [µM]	Vmax (purified protein [1]; [3]) [µmol/min/mg]	kcat (purified protein [1]; [3]) [s⁻¹]	kcat/Km (purified protein [1]; [3]) [M⁻¹ s⁻¹]
B1	90								
B2		70 ± 10	0.12	0.1 ± 0.01	1490 ± 80	50 ± 10	0.16	0.13 ± 0.02	2760 ± 110
